Measurements published in the DeepSol protein solubility set.

Assay: soluble on expression in E. coli; label from the status in PepcDB or PDB records

Row | Sequence | soluble on expression in E. coli
1 | MLQGHRTWVFENKPVIISTGVVGGPFEAKGNIPEDFDILHEDLWLGQDSYEKAHKILFEEACSRATEKAELRKDDIQFVLAGDLINQITPTSFACRTLGTPYLGLFGACSTSMEGLALGASIVNAKGAKYLLTGASSHNTAVEKQFRYPTEYGGQKPPTAQWTVTGAGAAILSDTGHGPRVTSATIGRVIDMGLTDPFNMGGAMAPAAVDTIEAHLRERQIDASYYDLIVTGDLGHVGREIAYDLLHKHGTKVTSEQFQDCGIIIYREGQPVIAGASGPGCSATVVYGHLLNRMKRGEFKKILVVATGALLSPLTFQQEETIPCIAHAVSIEFGGATQLEHHHHHH | soluble
2 | AHHHHHHASAKWVCKICGYIYDEDAGDPDNGISPGTKFEELPDDWVCPICGAPKSEFEKLEDGSNPMPRKISFDPPSFIQLTRKQNKELLEFVLAEFEIYLPITTVHAYLLAKAFKGKNPKEEVQKLRDIVKIVDLTDELLGEIAEIDASLIKDGYFFTLEDLITAVSAITSKSLLVVNGNAEKYSPLRKYGLDCVNYEKFLEEVEVLAREEAKREKII | soluble
3 | MSAPVQCPIHPDVHLIEDHRAGDLVCPACGLVVGDRLVDVGTEWRSFSNERSGNDPSRVGAPENPLLSGGDLSTTIAVGFGGSDSDNSLANAQRKSMNNTDRQMTAAMSLIREMSERIHLPRNIQDSASRIFKDVLESKALRGKNNEAQAAACLYIACRKDGVPRTFKEICAVSRVSKKEIGRCFKIIVRSLETNLEQITSADFMSRFCGNLSLPNSIQAAATRIAKCAVDMDLVAGRTPISIAAAAIYMASQASAEKRSAKEIGDVAGAAEITVRQTYKLLYPKALELFPKDFRFVTPIDALPNS | not soluble
4 | MPPFMSGLRAVSSLLSCRNAISRKLVSRSGIPRGSFVSDQIRRFGSLSGVERCSSNWLMSNDDARVSFRRLPGSVSLLQRRHFLGCGDGEEGGGELSKIYEERRVLGYTPEQMFNVVAAVDLYHGFVPWCQRSEVLKEYPDGSFDAELEIGFKFLVESYISHVESERPKWIKTTARDTGLFDHLINLWQFKPGPIPGTCDLHFHVDFKFNSPLYRQVASMFFKEVASRLVGAFSDRCRLVYGPGVRVDENAYEQRA | soluble
5 | MGSDKIHHHHHHMIDFSLCEVNKFRAYGGANGNKINILYEGNSYMLKFSPVPSRNKAMSYTNGCISEYLACHIFASLGFKTQETLLGTYTDPRGKEKVVVACGDFTEGGKRLIEFAHLKNTCISSEQNGYGKELSSIMQAIDEQMLLPPDQLRDFFWDMFIADALLGNFDRHNGNWGILVDEQSKTAEIAPVYDCGSCLYPQLAAKDMGDVLNSEDEIDRRVYVFPTSSIEEDGKKISYFEFISSLRNPDCTAALKRVSARIDMEKIRMLIDKTPTLLPVQKEFYTVIISERKAKIIDYSMEKLMKLKGQDLERDEQQNGGLQFTM | not soluble
6 | MSLAEGNYISRIRAKIGHDPLIMINTFAVLWNEKHDAIFLEQRADIPDGWGFPGGFVEYGESPMDAIVREVKEETNLDVKVKNMFEMISSVNPHNFWGDAQQNLSLGFEIELLDGKLQVDQSETLAAEFVPINPEPKMFVPAAQANMHRILTWEDRPKPWLIDSNIKSHSEGHHHHHH | soluble
7 | MCSSETIVKLNVGGSVFETWKSTLTKQDGFFKTLVETNIPVKKDTSDCYFIDRSPKYFETVLNYMRSGVTVLPDSEKELQELKKEAEFYLLEQLVDLCEPINNQIRTYRSSHELLQIIASTKKPVVVINYITHNNDIIYIPEGFRFDEFVKKNSSVVEIYFQPMDNREPLPKDLRRHRGMKYYPEPVWSYRIYNSTHSGCVDLTAMDDLQKKIDSILNGE | not soluble
8 | MGSDKIHHHHHHMASIKDVAKLAGVSIATVSRVINGYNNVSEETRKKVIDAIRKLNYHPVYAVKGAVLKRTIGVLVPNFGGFHYNEILTGIEKEAIKRDFTLMISTTLHRTSVELERLEVFFAKRVDGIIVCSSKKDEEQLERLIKSAIPVVVVDREEPEIRLDNVGIDNYAAGRMCAKYLLEKGHRKVLLLKGRKDIYSFSDRERGFIDYSTRHGIDVKVTPCGYFAEHGYHAVERYLKKHGRDFTAIFAINDLSAFGALKALHDLGVLVPDEVSVMGFDDDPISSYTIPPLTTVRQPREEMGRVAFEILYERLSGKKGVARRVVLPVEIVERESVKQL | not soluble
